In patent US20190282683A1:

Biological target: Ag85b protein from Mycobacterium tuberculosis (poly-His tagged test protein) (Mycobacterium tuberculosis)

In the case of “splenocytes of mice injected with Sbi-III-IV-Ag85b (cells without a defined receptor)”, the Secreted IFN-gamma in the tissue culture supernatant (ELISA) is reported as 4 fold.
